Reference: the DeepSol protein solubility set

Experiment: soluble on expression in E. coli; label from the status in PepcDB or PDB records

Row | Sequence | soluble on expression in E. coli
1 | MGKSSKPIQTTQNTTQTNAPPEWAKGIFERAAKDAMSFYNQGSGKAVYDGQRVAGLSDQTKNAINGLSNNTHNYDNNYLNGLATGQNSTSQNLKNMASGHEIGNNPYFKEALQNTLNKASDTINSSLAGAGRYGSGAHTGVLADELGSIATQALSQQYNQDVNNMMQANGMIDQANQNQLASANNFFQGQGQANLNALSGGGLLDANHQQQLDEERQKWEQQNNLDWDQLSKLLAAGTASAGNYGMQTEQRTQFTPQTKLNPWQTIGNVGTILGTFAGLSDRRAKENIREAGQKKGYTLYEYNYKGSPERYRGVMAQDVLRSNPEAVFYNNTTGLLHVDYDKLGFNMERVQ | not soluble
2 | MTARYIAIDWGSTNLRAWLYQGDKCLESRQSEAGVTRLNGKSPDAVLAEVTTHWRDSATPVVMAGMIGSNVGWQNAPYLPVPALFSAIGEQLTAVGDNIWIIPGLCVSREDNHNVMRGEETQLLGACELSPSSVYVMPGTHCKWVQTDTQQIHDFRTVMTGELHHLLLRHSLVGAGLPEQEVSGDAYAAGLERGLNSPAVLPSLFEVRASHVLGHLAREQVSDFLSGLLIGAEVASMSESFAAQQAITLVAGPALISRYQQAFSAIGRDVSTVDGDMAFQAGIRSIAHAVAN | not soluble
3 | MEKDLQLRVNEKLDVENILKDLDKYTPKRRGWTWRQPAENLQMGPFIYKDASTPLENSVALPSAKYFGDIDPQPLPVITTEIASGRFEDDIRRMRMAAWHGADHIMVIRTAGQSHYDGLIEGTPQGIGGVPITRKQVRAQRKALDLIEEEVGRPINYHSYVSGVAGPDIAVMFAEEGVNGAHQDPQYNVLYRNINMIRSFIDACESKTIMAWADMAQIDGAHNANATAREAWKVMPELMVQHALNSIFSLKVGMKKSNICLSTVPPTAPPAPSMYLDLPYAVALREMFEGYRMRAQMNTKYMEASTREATVTHVLNLLISKLTRADIQSTITPDEGRNVPWHIYNIEACDTAKQALIGMDGLMDMVQLKREGVLGDTVRELKERAVLFMEEIIEAGGYFNAVEQGFFVDSGYYPERNGDGIARQINGGIGAGTVFERDEDYMAPVTAHFGYNNVKQYDEALVSEPSKLIDGCTLEVPEKIVYIDELDENDNVNVRMEETKEFRHSSMIKPEVEWQADGTVLLTMFLPTSKRVAEFAAIEFAKKMNLEEVEVINREVMQEAEGTRIELKGRVPFSIDINSLVIPPEPEILSEDEIREDIEKTPLKIVAATVGEDEHSVGLREVIDIKHGGIEKYGVEVHYLGTSVPVEKLVDAAIELKADAILASTIISHDDIHYKNMKRIHELAVEKGIRDKIMIGCGGTQVTPEVAVKQGVDAGFGRGSKGIHVATFLVKKRREMREGKSEDPNSSSVDKLAAALEHHHHHH | soluble
4 | MLKIGIIPNEDKDEELKYTRILVDSIKKCGGTAIVCDDIALKLGDKESNINEDNIVDMSDVMVCLGGDGTFLKAARMTVVKGKPLLGVNLGKLGFLADVDKNDIENAVKRLVEDKFTVDERMMLDTVIVRDGKIIAEDIVLNDVVISRGAISRILHLKTYINDAFMDLYPGDGLIISTPTGSTAYSLSAGGPLVEPDVDLIICTPICPHLLYSRSFITTADRVIKVVVAESSSHEAMVTVDGQNGYEVRGGDVIITKKSRIRMPMVRLNGKNFFDVLRGKIYDRGESMK | not soluble
5 | MAHHHHHHSLITANDIRAAHARGEQAMSVVLRASIITPEAREVAELLGFTITECDESVPASTSAQACKSESQRIREAIIAQLPEGQFTESLVAQLMEKVLKEKQSLELGTMQPSFTSVTGKGGVKVIDGSSVKFGRFDGAEPHCVGLTDLVTEQDGSSMAAGFMQWDNAFFPWTLNYDEIDMVLEGELHVRHEGETMIAKAGDVMFIPKGSSIEFGTPTSVRFLYVAWPANWQSVEG | soluble
6 | MNKRYNTLNDYYRRIFGEKTFKVPIDAGFDCPNRDGTVAHGGCTFCTVSGSGDAIVAPEAPIRDQFYKEVDFMHRKWPDVKKYLVYFQNFTNTHDKVEVIRERYEQAINEPGVIGINIGTRPDCLPDVTILYLAELSQRLHVTLELGLQTTYEKTSKLINRAHSYQLYVETVKRVRDLAPKVEIVSHLINGLPGESHEMMLENVRRCVTDNDIDGIKLHLLHLMTNTRMQRDYHEGRLHLLSMEEYVNIICDQLEIIPKNIVIHRLTGDAPRDMLIGPMWSLNKWEVLNSIDREMERRNAYQGCKLEVNI | not soluble
7 | MSLDATYVETSTSKLGCRSAVADQVEKFQFGQYECDAPHKLYNSLIDNAKKFIESPDFILLGGDLIAHGLNVTKQMLIDNFNNITNPIEKKYPNTKIYITLGNNDFQKNYGSFDTDLTDFETVFEIFGKWMNTEQAETFKKGGYYYADFPSSNFRFLFLNTVIYSRKRTFNETLTDPYDQFAWIRKMYKDAVQKGYKVGIALHIPPGVVYTDNKVGWNLKYINTFAEIMKECDFSFIISGHSHTDMILPLYTPNSDTDNILYSLSAPSVSPTHYNNPGFRHYLLDQEIIKDFIQYYADIMLNPSELNWEIEYKFSEAYKTQNITRNSINDAVKWIRSTGEGQWRYRERVYSREGHHHHHH | soluble
8 | QAVGGKIADDAQKVAGLYAEKKRTNWTQANGVAGKISHKIQSLLGMRDAGSRVQAFVAFMADGKGRPGATMLDLGDGWMRATRVIKGEAALIDFQCDSDGKVVDARHPGRFPVLPQGNEREAFKTVLQELKFRGAETLSKVPVYYVNRNTRGYVIPTHGYVVAGHPNRGRKSGAVLYGVGGDPKRGPVALDEKLLGHLVGRSDSKTSSKLSAPVKAAISALAGASFATREDFYDAYCAVRGDAVDPLERHNEISSIYRLLPLSTMEMWPKKADDYRVARPAAPERDLRAFENLPKDIGRKAQLKKVSNVDSIDLLEAKRQFTLHQLYQDEMLGRNGTGVPSADFKPKVDAQRRDQLVASTPKFQRLPPHTTDKVGNCNTGASSLLQRAVDTYTEKNNLPPEKVTAASIFGIGSSHRLAIWDPLDGSSSNKSSKDR | not soluble
9 | SLIMRYADSGLCGTVSQNMADARTRAESTDLSETSPDE | soluble
10 | MNNLKLDIVEQDDKAIVRVQGDIDAYNSSELKEQLRNFISTTSKKKIVLDLSSVSYMDSAGLGTLVVILKDAKINGKEFILSSLKESISRILKLTHLDKIFKITDTVEEA | soluble
11 | MGSDKIHHHHHHMKGQSKKALTKKRIEEAALSLFREQGYDSTTVQEITAKAQVAKGTFFNYFPTKESIMRSLAEDRLHSVSVYMEQRHIQSLPILKKIRTYLSYLLEEYDSHPKLTVQIWRHVVEFEEMILSHWVVLLEEAKERGELSEDFPIHVWSHIIHSHVCYGLQMSHLAPTKAQLLAKVMPLLEESLSAIIQKRGNSAMKKLVVLGGGYGGMRILQRLLPNDLPSDWEITLVDRLPYHCLKTEYYALAAGTASDHHLRVSFPEDPRLSTRYGSVSSIDLASKTVLFEEGEPLTYDTLIIGLGCEDKYHGVPGAKEHTYSIQSMEATRRTYEALNNVRPEGVVTIVGAGLSGVELASELRESRPDLTIKLLDRGDIILSMFPRRLSNYVQNWFIDHGVDIINKSNVTKVEEGAVYNHDERIESDAIIWTAGIQPNVVVRNLDVEKDQQGRVVLTPHHHLPTDEDVFVVGDCASLPHAPSAQLAEGQAEQIVTVLKKRWNNESLPDEFPRIKLKGVLGSLGKKHGFGLMGERTLIGRVPRVLKSGVLWMYKYHSG | not soluble
12 | MAEIPLFPLSNALFPAGVLRLRVFEIRYLDMVRRCIADGSEFGVVVLEQGTEVRRPDGREVLARAGTMARIDHWEAPMPALLELACTGTGRFRLHACTQGKYGLWTGQAEPVPDDAPLEVPPELARSASALGRLIARLQREGVPPHIMPMAAPFRLDDCGWVADRWAEMLSLPPADKARLLLLPPLDRLREIDAVLAADGHALEHHHHHH | soluble
13 | MAVKEATSETKKRSGYEIITLTSWLLQQEQKGIIDAELTIVLSSISMACKQIASLVQRANISNLTGTQGAVNIQGEDQKKLDVISNEVFSNCLRSSGRTGIIASEEEDVPVAVEESYSGNYIVVFDPLDGSSNLDAAVSTGSIFGIYSPNDECLPDFGDDSDDNTLGTEEQRCIVNVCQPGSNLLAAGYCMYSSSVIFVLTIGKGVFVFTLDPLYGEFVLTQENLQIPKSGKIYSFNEGNYKLWDENLKKYIDDLKEPGPSGKPYSARYIGSLVGDFHRTLLYGGIYGYPRDKKSKNGKLRLLYECAPMSFIVEQAGGKGSDGHQRVLDIQPTEIHQRVPLYIGSTEEVEKVEKYLA | soluble
14 | MAGDPMGNSSTKGSADSKGDKLHVVTTFYPMYEFTKQIVKDKGDVDLLIPSSVEPHDWEPTPKDIANIQDADLFVYNSEYMETWVPSAEKSMGQGHAVFVNASKGIDLMEGSEEEHEEHDHGEHEHSHAMDPHVWLSPVLAQKEVKNITAQIVKQDPDNKEYYEKNSKEYIAKLQDLDKLYRTTAKKAEKKEFITQHTAFGYLAKEYGLKQVPIAGLSPDQEPSAASLAKLKTYAKEHNVKVIYFEEIASSKVADTLASEIGAKTEVLNTLEGLSKEEQDKGLGYIDIMKQNLDALKDSLLVKSLEHHHHHH | soluble
15 | MELSPVFARRLYLALLVESLERPNVPKLIEKTGWPRRTIQDVIKAMPGIGIELNFVQDGRRHNDGYYQLSDWGPFDSQWVTERKKDIAASLGFCA | not soluble
16 | MGSDKIHHHHHHMENQEKPLSVDEEYDLWKSNVPLMYDFVSETRLTWPSLTVQWLPTPVQELDGGFIKQELIIGTHTSGEEENYLKFAEINLPKEILSNEDPQEEAGEEYQSSLPAPRSNIRITAKYEHEEEITRARYMPQDPNIVATINGQGTVFLYSRSEGLQSTLKFHKDNGYALSFSTLVKGRLLSGSDDHTVALWEVGSGGDPTKPVRTWNDLHSDIINDNKWHNFNKDLFGTVSEDSLLKINDVRANNTTIDTVKCPQPFNTLAFSHHSSNLLAAAGMDSYVYLYDLRNMKEPLHHMSGHEDAVNNLEFSTHVDGVVVSSGSDNRLMMWDLKQIGAEQTPDDAEDGVPELIMVHAGHRSSVNDFDLNPQIPWLVASAEEENILQVWKCSHSLPIVGGPPKVNKDIIS | not soluble
17 | MIDKIVFEEDEEYDLTQDSFRYGRVTTGASYNLVTGKIPETVLEQVKAKDDENDDVEFEMDHLEDKEAVQKTKTFDELYESQMPKYFEYQSNFSEVNGIWTLLFDQNHYENMSTFELQAAICAALNSKHYMMICVGIDAFNAVTGVEMSAKDRVVFRMALTRAVAGEFQPPLVKVAPKQLTGVSPMKRDISEVTSSIDVLFIPVIGVTDEVENNRFLIVVRVKEISDKVYQISSGRIYNELEGRVVEMSDMNEAFHKLIVEQSISDIQTRRGSMFMLEPEPFLEDSPVIFTGSKEILRENHEIPNILKENSTERSLSQSLLNLLDIQNIGWIFFGTALSCCIYNNAIKPLVK | not soluble
18 | FEQEGRDVALDYRWMPYKRISTNLKKALIASEDARFAGHGGFDWGGIQNAIRRNRNSGKVKAGGSTISQQLAKNLFLNESRSYIRKGEEAAITAMMEAVTDKDRIFELYLNSIEWHYGVFGAEAASRYFYQIPAAKLTKQQAAKLTARVPAPLYYADHPKSKRLRNKTNIVLKRMGSAELPESDTD | not soluble
19 | MSLTANSHAVMTVGDQTVSPQEFRLAYQRQVSDLSRQFGTRLTTEQAKAFGIDRQVFSQLAAGAALDELASKMNLGLSENRLANLIAEDPAFKSVNGQFDRNLFSERLRNSGFREDDYIKERSKVAVRSQIVEAVSDGFAAPQVLVDALKQYRNEQRAVDYVILSNAVIPPVKAPGDDVLTPWFETNKSKYRAPEFRKFTYVKLEPSDIAEPASVTDAQIADYYNSHKDSFRTAGRRTVEQLTFPDKEMAAAAAEQIRLGNTTYDQVVKDQGKTASDVTLGEFTKDTIPDQSIADAAFAIQKDGGVSPVVDGSFGPILLRVTGIKPETEGHHHHHH | soluble
20 | SGSRDHLFKVLVVGDAAVGKTSLVQRYSQDSFSKHYKSTVGVDFALKVLQWSDYEIVRLQLWDIAGQERFTSMTRLYYRDASACVIMFDVTNATTFSNSQRWKQDLDSKLTLPNGEPVPCLLLANKCDLSPWAVSRDQIDRFSKENGFTGWTETSVKENKNINEAMRVLIEKMMRNSTEDIMSLSTQGDYINLQTKSSSWSCC | soluble
